The test concerns the target acetylcholine receptor. The experiment in a line: SPR, peptide at 10 µM on acetylcholine receptor. Background: Surface plasmon resonance follows binding to a sensor surface in real time, without labels.

Molecule KGQLR [5mer-376] returned a Binding affinity (RU) of 65 RU.
Turning to RRVQK [5mer-88], the Binding affinity (RU) is 73 RU.
To RRITK [5mer-397] belongs 52 RU; to KQRLK [5mer-362], 62 RU; to RVVRR [5mer-84], 67 RU.
Regarding RWVCK [5mer-395], the Binding affinity (RU) was found to be 50 RU.
In the case of RVLYR [5mer-96], the Binding affinity (RU) is 55 RU.
RLLRK [5mer-63] registered a Binding affinity (RU) of 86 RU.
In turn, RSVCR [5mer-372] came in with a Binding affinity (RU) of 54 RU.
The result for RQRYK [5mer-82] reads 84 RU; that for KLYRR [5mer-72], 50 RU; that for KGFYK [5mer-377], 67 RU.
RRILR [5mer-387] displayed a Binding affinity (RU) of 52 RU.
The result for KSLQR [5mer-393] reads 75 RU; that for RRLSK [5mer-378], 65 RU; that for KRQLR [5mer-97], 52 RU.
Turning to RSVQK [5mer-367], the Binding affinity (RU) came to 71 RU.
KVFTK [5mer-373] gave a Binding affinity (RU) of 87 RU.
With KLFCK [5mer-388], the Binding affinity (RU) was 78 RU.
RQLQK [5mer-366] gave a Binding affinity (RU) of 52 RU.
KGQCR [5mer-398]: the Binding affinity (RU) worked out at 71 RU.
Turning to RGFTR [5mer-369], the Binding affinity (RU) is 84 RU.
The result for KVVTR [5mer-64] reads 76 RU.
To KRRRK [5mer-394] belongs 66 RU.
To KQLCR [5mer-375] belongs 84 RU.
As to RRLCK [5mer-86], the Binding affinity (RU) was found to be 55 RU.
RLLQR [5mer-70] gave a Binding affinity (RU) of 69 RU.
As for RGISK [5mer-371], the Binding affinity (RU) is 86 RU.
Take KWRQK [5mer-77]: the Binding affinity (RU) was determined as 74 RU.
Molecule RQIQK [5mer-91] had a Binding affinity (RU) of 55 RU.
The result for KGVLK [5mer-85] reads 74 RU; that for RWQRK [5mer-383], 56 RU.
For RWFLR [5mer-79], the Binding affinity (RU) is 82 RU.
RQITK [5mer-74] had a Binding affinity (RU) of 87 RU.
KRFCR [5mer-390] displayed a Binding affinity (RU) of 64 RU.
With KLFTR [5mer-374], the Binding affinity (RU) came out at 75 RU.
RGFYK [5mer-68] returned a Binding affinity (RU) of 82 RU.
Molecule RQITR [5mer-87] yielded a Binding affinity (RU) of 55 RU.
To KVQTK [5mer-75] belongs 63 RU; to RSRLR [5mer-392], 87 RU; to KWVYR [5mer-93], 79 RU.
The molecule KRVRK [5mer-363] yielded a Binding affinity (RU) of 59 RU.
Molecule KGQRR [5mer-381] yielded a Binding affinity (RU) of 87 RU.
On to KSRTR [5mer-80], for which the Binding affinity (RU) came to 83 RU.
As for KGFSR [5mer-83], the Binding affinity (RU) amounted to 64 RU.
In the case of KRLLR [5mer-66], the Binding affinity (RU) was found to be 80 RU.
The result for KRRYK [5mer-365] reads 52 RU; that for RQIRR [5mer-65], 67 RU; that for RGVYR [5mer-385], 51 RU.
Take KSLRK [5mer-384]: the Binding affinity (RU) came out at 75 RU.
For KWRRR [5mer-389], the Binding affinity (RU) is 57 RU.
Turning to KRYLK [5mer-380], the Binding affinity (RU) was 82 RU.
The result for RQLYR [5mer-67] reads 86 RU.
RLRQR [5mer-382] yielded a Binding affinity (RU) of 62 RU.
To RGYRR [5mer-76] belongs 80 RU; to RWYTK [5mer-90], 86 RU; to KSRLR [5mer-379], 79 RU.
As for KVICK [5mer-78], the Binding affinity (RU) was 79 RU.
In turn, RGRRK [5mer-95] showed a Binding affinity (RU) of 68 RU.
The result for KVVCR [5mer-396] reads 53 RU; that for KWRRK [5mer-370], 67 RU; that for RWFQR [5mer-94], 50 RU.
The result for KVFRR [5mer-391] reads 72 RU.
Molecule RWITR [5mer-364] yielded a Binding affinity (RU) of 62 RU.
Molecule RVRLK [5mer-92] registered a Binding affinity (RU) of 62 RU.
RSFLK [5mer-386] came in with a Binding affinity (RU) of 78 RU.
Molecule RSRSR [5mer-69] registered a Binding affinity (RU) of 50 RU.
To KRITK [5mer-89] belongs 77 RU.
The result for RGIYR [5mer-81] reads 79 RU; that for KWYCK [5mer-98], 68 RU.
To KLQSK [5mer-71] belongs 68 RU.
Molecule KRIRR [5mer-368] returned a Binding affinity (RU) of 50 RU.

These data come from patent US20250011363A1, “OPTIMIZED SHORTENED PEPTIDE THAT BINDS TO ACETYLCHOLINE RECEPTOR, AND USE THEREOF” (SKINMED CO., LTD., priority 2021, published 2025).
